Laboratory results as given in US20140363495A1.

What was measured:
[1] = biological target: HLA-A2 molecules on T2A2 cells (human); experiment: flow cytometry, upregulation of HLA-A2 on T2A2 cells, peptide 12.5 µg/mL, negative control; conditions: remark: other sources report otherwise
[2] = biological target: HLA-A2 molecules on T2A2 cells (human); experiment: flow cytometry, upregulation of HLA-A2 on T2A2 cells, peptide 25 µg/mL, negative control; conditions: remark: other sources report otherwise

T2 Binding (MFI) [1]: 109 MFI | T2A2 Binding (MFI) [2]: 83.8 MFI
Binder: HLFGYSWYK [CAP-7]
